{"source": "paper PMC6555819", "about": "“Comprehensive study of nuclear receptor DNA binding provides a revised framework for understanding receptor specificity”", "binders": {"B1": {"name": "NRC3_random_hg19_361_o1 (dsDNA)", "DNA 1": "GCAAACTGGGAGGTGGAGGTTGTAGTAAGCCAAGATGCGATTGACAGCGTAGAATGAAGG", "DNA 2": "CCTTCATTCTACGCTGTCAATCGCATCTTGGCTTACTACAACCTCCACCTCCCAGTTTGC"}, "B2": {"name": "NRC3_wobSeed67_DR2_o1 (dsDNA)", "DNA 1": "GCCCAGACAGGTGAGAAGGTAACTCAGCCTCGATTAGCGATTGACAGCGTAGAATGAAGG", "DNA 2": "CCTTCATTCTACGCTGTCAATCGCTAATCGAGGCTGAGTTACCTTCTCACCTGTCTGGGC"}, "B3": {"name": "NRC3_random_hg19_245_o1 (dsDNA)", "DNA 1": "GCATGTTCCTTTACCCTAGCTGCAGTGGGTATCCACGCGATTGACAGCGTAGAATGAAGG", "DNA 2": "CCTTCATTCTACGCTGTCAATCGCGTGGATACCCACTGCAGCTAGGGTAAAGGAACATGC"}, "B4": {"name": "NRC3_wobSeed59_DR2_o1 (dsDNA)", "DNA 1": "GCTCTATTAGTTGATTAGGGCAACCGAAACAGCGGAGCGATTGACAGCGTAGAATGAAGG", "DNA 2": "CCTTCATTCTACGCTGTCAATCGCTCCGCTGTTTCGGTTGCCCTAATCAACTAATAGAGC"}, "B5": {"name": "NRC3_wobSeed93_DR3_C13T_o1 (dsDNA)", "DNA 1": "GCAGTCAAAGTTTATCTAGGTAACGTAAGATATGCTGCGATTGACAGCGTAGAATGAAGG", "DNA 2": "CCTTCATTCTACGCTGTCAATCGCAGCATATCTTACGTTACCTAGATAAACTTTGACTGC"}, "B6": {"name": "NRC3_wobSeed93_DR3_T12G_o1 (dsDNA)", "DNA 1": "B5 DNA 1 with T12G, T13C", "DNA 2": "B5 DNA 2 with A48G, A49C"}, "B7": {"name": "NRC3_wobSeed141_DR5_G10C_o1 (dsDNA)", "DNA 1": "GCAGTCAAACTTCAGGACGAGGTAACGTAAAGCACGGCGATTGACAGCGTAGAATGAAGG", "DNA 2": "CCTTCATTCTACGCTGTCAATCGCCGTGCTTTACGTTACCTCGTCCTGAAGTTTGACTGC"}, "B8": {"name": "NRC3_wobSeed88_DR3_G10A_o1 (dsDNA)", "DNA 1": "GCTAGCCTAAGTCATGCGGGCCAGTATAGTGTCGGCGCGATTGACAGCGTAGAATGAAGG", "DNA 2": "CCTTCATTCTACGCTGTCAATCGCGCCGACACTATACTGGCCCGCATGACTTAGGCTAGC"}, "B9": {"name": "NRC3_wobSeed101_DR4_A14C_o1 (dsDNA)", "DNA 1": "GCCCTTACGGGTCCCTCCAGGTTATAGCATCGGAGTGCGATTGACAGCGTAGAATGAAGG", "DNA 2": "CCTTCATTCTACGCTGTCAATCGCACTCCGATGCTATAACCTGGAGGGACCCGTAAGGGC"}, "B10": {"name": "NRC3_wobSeed87_DR3_A14G_o1 (dsDNA)", "DNA 1": "GCCGAACTAGGTCGTCCAGGACAGTGAATACATTGAGCGATTGACAGCGTAGAATGAAGG", "DNA 2": "CCTTCATTCTACGCTGTCAATCGCTCAATGTATTCACTGTCCTGGACGACCTAGTTCGGC"}, "B11": {"name": "NRC3_wobSeed87_DR3_G10C_o1 (dsDNA)", "DNA 1": "B10 DNA 1 with G10C, G14A", "DNA 2": "B10 DNA 2 with C47T, C51G"}, "B12": {"name": "NRC3_wobSeed15_DR0_A14G_o1 (dsDNA)", "DNA 1": "GCCGAACTAGGTCGAGGACAGTGAATCTCCGCACGCGCGATTGACAGCGTAGAATGAAGG", "DNA 2": "CCTTCATTCTACGCTGTCAATCGCGCGTGCGGAGATTCACTGTCCTCGACCTAGTTCGGC"}, "B13": {"name": "NRC3_wobSeed122_DR5_G21T_o1 (dsDNA)", "DNA 1": "GCGCTAGTTGGTCAGTAAAATGTCACACACCGGTCGGCGATTGACAGCGTAGAATGAAGG", "DNA 2": "CCTTCATTCTACGCTGTCAATCGCCGACCGGTGTGTGACATTTTACTGACCAACTAGCGC"}, "B14": {"name": "NRC3_wobSeed41_DR1_G17C_o1 (dsDNA)", "DNA 1": "GCATATGTAGGTTAAGCGTCATTCAGGTTGGTTCGCGCGATTGACAGCGTAGAATGAAGG", "DNA 2": "CCTTCATTCTACGCTGTCAATCGCGCGAACCAACCTGAATGACGCTTAACCTACATATGC"}, "B15": {"name": "NRC3_wobSeed136_DR5_T12G_o1 (dsDNA)", "DNA 1": "GCTAGCCTAGGGCATTCAGGGGCCAGTATAGAAAGCGCGATTGACAGCGTAGAATGAAGG", "DNA 2": "CCTTCATTCTACGCTGTCAATCGCGCTTTCTATACTGGCCCCTGAATGCCCTAGGCTAGC"}, "B16": {"name": "NRC3_wobSeed90_DR3_A14G_o1 (dsDNA)", "DNA 1": "GCCATACAGGGTCGGCTAGGCCAGAGTAGGGACGGCGCGATTGACAGCGTAGAATGAAGG", "DNA 2": "CCTTCATTCTACGCTGTCAATCGCGCCGTCCCTACTCTGGCCTAGCCGACCCTGTATGGC"}, "B17": {"name": "NRC3_wobSeed63_DR2_A14G_o1 (dsDNA)", "DNA 1": "GCCGAACTAGGTCGCCAGGACAGTGAAGAGGTTGGAGCGATTGACAGCGTAGAATGAAGG", "DNA 2": "CCTTCATTCTACGCTGTCAATCGCTCCAACCTCTTCACTGTCCTGGCGACCTAGTTCGGC"}, "B18": {"name": "NRC3_random_hg19_15_o1 (dsDNA)", "DNA 1": "GCGTTGGTCAGCTGGTCTCGAACTCCTGACCTCAAGGCGATTGACAGCGTAGAATGAAGG", "DNA 2": "CCTTCATTCTACGCTGTCAATCGCCTTGAGGTCAGGAGTTCGAGACCAGCTGACCAACGC"}, "B19": {"name": "NRC3_wobSeed138_DR5_A14G_o1 (dsDNA)", "DNA 1": "GCGATACAGGGTCGGCTAGAGGCCAGAGTATGGAAAGCGATTGACAGCGTAGAATGAAGG", "DNA 2": "CCTTCATTCTACGCTGTCAATCGCTTTCCATACTCTGGCCTCTAGCCGACCCTGTATCGC"}, "B20": {"name": "NRC3_wobSeed66_DR2_C13A_o1 (dsDNA)", "DNA 1": "GCAATACAGGGTAACTAGGCCAGAGTAGGTACGAATGCGATTGACAGCGTAGAATGAAGG", "DNA 2": "CCTTCATTCTACGCTGTCAATCGCATTCGTACCTACTCTGGCCTAGTTACCCTGTATTGC"}, "B21": {"name": "NRC3_random_hg19_475_o1 (dsDNA)", "DNA 1": "GCATGAAAGTTTAGTATGTGTAGGGTAGTGCTTCATGCGATTGACAGCGTAGAATGAAGG", "DNA 2": "CCTTCATTCTACGCTGTCAATCGCATGAAGCACTACCCTACACATACTAAACTTTCATGC"}, "B22": {"name": "NRC3_wobSeed39_DR1_A14T_o1 (dsDNA)", "DNA 1": "GCCGAACTAGGTCTAAGGACAGTGAAAGGCGACGTAGCGATTGACAGCGTAGAATGAAGG", "DNA 2": "CCTTCATTCTACGCTGTCAATCGCTACGTCGCCTTTCACTGTCCTTAGACCTAGTTCGGC"}, "B23": {"name": "NRC3_wobSeed21_DR0_T12C_o1 (dsDNA)", "DNA 1": "GCCGTCAAAGTCCAAGGTAACGTAACAGAAAGCAGCGCGATTGACAGCGTAGAATGAAGG", "DNA 2": "CCTTCATTCTACGCTGTCAATCGCGCTGCTTTCTGTTACGTTACCTTGGACTTTGACGGC"}, "B24": {"name": "NRC3_wobSeed21_DR0_T11A_o1 (dsDNA)", "DNA 1": "B23 DNA 1 with T11A, C12T", "DNA 2": "B23 DNA 2 with G49A, A50T"}}, "biological_target": "FXR:RXRa (Homo sapiens, UniProt Q96RI1;P19793 full;full)", "sequence (Q96RI1 whole entry, chain 1 of 2)": "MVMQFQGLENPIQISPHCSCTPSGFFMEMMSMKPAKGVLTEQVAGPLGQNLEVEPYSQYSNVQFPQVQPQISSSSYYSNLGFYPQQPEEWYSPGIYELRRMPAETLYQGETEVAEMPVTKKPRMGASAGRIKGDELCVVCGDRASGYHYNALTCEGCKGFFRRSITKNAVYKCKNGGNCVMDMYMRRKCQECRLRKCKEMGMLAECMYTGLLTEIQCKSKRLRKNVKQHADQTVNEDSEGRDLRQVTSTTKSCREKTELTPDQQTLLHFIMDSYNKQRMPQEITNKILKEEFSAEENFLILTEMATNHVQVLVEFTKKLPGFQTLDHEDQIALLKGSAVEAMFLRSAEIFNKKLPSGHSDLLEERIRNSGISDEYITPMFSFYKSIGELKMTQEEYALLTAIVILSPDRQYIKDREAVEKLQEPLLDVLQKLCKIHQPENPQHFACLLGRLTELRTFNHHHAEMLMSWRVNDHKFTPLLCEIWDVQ", "sequence (P19793 whole entry, chain 2 of 2)": "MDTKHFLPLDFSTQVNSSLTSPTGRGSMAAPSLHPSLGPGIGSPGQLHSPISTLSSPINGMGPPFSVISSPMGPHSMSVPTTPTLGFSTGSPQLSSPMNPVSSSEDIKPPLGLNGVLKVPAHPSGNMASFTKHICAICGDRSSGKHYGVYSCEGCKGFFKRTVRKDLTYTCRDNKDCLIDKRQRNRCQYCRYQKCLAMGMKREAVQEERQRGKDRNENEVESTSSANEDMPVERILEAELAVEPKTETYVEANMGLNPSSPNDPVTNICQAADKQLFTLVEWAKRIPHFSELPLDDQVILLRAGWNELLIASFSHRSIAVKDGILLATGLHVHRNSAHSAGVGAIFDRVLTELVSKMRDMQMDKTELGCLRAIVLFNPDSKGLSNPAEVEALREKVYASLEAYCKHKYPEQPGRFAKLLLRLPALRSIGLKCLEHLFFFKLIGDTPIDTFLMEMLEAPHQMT", "assay": "no ligand; PBM; 270 nM : 90 nM RXRa; PBS pH 7.4, 2% milk, 0.02% Triton X-100, 1 mM DTT, BSA, 0.4 mg/ml salmon testes DNA", "conditions": "tags: His kept;His cleaved; copies: 1;1; label: surface-attached array probe", "method_in_brief": "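The probes on custom Agilent 4×180K protein-binding microarrays were double-stranded, with 34-nt variable regions bearing direct-repeat seeds, single-nucleotide variants, half-site ablations and random human genomic background sequences. Incubation lasted 1 h with ligand-free nuclear receptor dimers in PBS pH 7.4, 2% milk, 0.02% Triton X-100, 1 mM DTT, 0.2 mg/mL BSA and 0.4 mg/ml salmon testes DNA. Antibodies against each partner (one per run) detected bound dimers, and fluorescence scans were regression-normalized. Binding z-scores take the random background probes as reference.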", "note": "Numbering of substitutions follows the chain as printed."}
{"binder": "B1", "values": [{"measurement": "binding signal", "value": "0.3 PBM z-score against 500 random probes"}]}
{"binder": "B2", "values": [{"measurement": "binding signal", "value": "0.47 PBM z-score against 500 random probes"}]}
{"binder": "B3", "values": [{"measurement": "binding signal", "value": "0.41 PBM z-score against 500 random probes"}]}
{"binder": "B4", "values": [{"measurement": "binding signal", "value": "0.48 PBM z-score against 500 random probes"}]}
{"binder": "B5", "values": [{"measurement": "binding signal", "value": "0.4 PBM z-score against 500 random probes"}]}
{"binder": "B6", "values": [{"measurement": "binding signal", "value": "0.12 PBM z-score against 500 random probes"}]}
{"binder": "B7", "values": [{"measurement": "binding signal", "value": "0.23 PBM z-score against 500 random probes"}]}
{"binder": "B8", "values": [{"measurement": "binding signal", "value": "-0.37 PBM z-score against 500 random probes"}]}
{"binder": "B9", "values": [{"measurement": "binding signal", "value": "0.32 PBM z-score against 500 random probes"}]}
{"binder": "B10", "values": [{"measurement": "binding signal", "value": "0.36 PBM z-score against 500 random probes"}]}
{"binder": "B11", "values": [{"measurement": "binding signal", "value": "0.27 PBM z-score against 500 random probes"}]}
{"binder": "B12", "values": [{"measurement": "binding signal", "value": "0.21 PBM z-score against 500 random probes"}]}
{"binder": "B13", "values": [{"measurement": "binding signal", "value": "0.1 PBM z-score against 500 random probes"}]}
{"binder": "B14", "values": [{"measurement": "binding signal", "value": "0.45 PBM z-score against 500 random probes"}]}
{"binder": "B15", "values": [{"measurement": "binding signal", "value": "-0.08 PBM z-score against 500 random probes"}]}
{"binder": "B16", "values": [{"measurement": "binding signal", "value": "0.13 PBM z-score against 500 random probes"}]}
{"binder": "B17", "values": [{"measurement": "binding signal", "value": "0.16 PBM z-score against 500 random probes"}]}
{"binder": "B18", "values": [{"measurement": "binding signal", "value": "0.16 PBM z-score against 500 random probes"}]}
{"binder": "B19", "values": [{"measurement": "binding signal", "value": "0.37 PBM z-score against 500 random probes"}]}
{"binder": "B20", "values": [{"measurement": "binding signal", "value": "-0.01 PBM z-score against 500 random probes"}]}
{"binder": "B21", "values": [{"measurement": "binding signal", "value": "0.26 PBM z-score against 500 random probes"}]}
{"binder": "B22", "values": [{"measurement": "binding signal", "value": "0.18 PBM z-score against 500 random probes"}]}
{"binder": "B23", "values": [{"measurement": "binding signal", "value": "0.2 PBM z-score against 500 random probes"}]}
{"binder": "B24", "values": [{"measurement": "binding signal", "value": "0.1 PBM z-score against 500 random probes"}]}
